In US20070087966A1:

Biological target: rat PRL receptor (PRL-R) on trigeminal ganglia neurons (rat) (UniProt P05710)
Assay: cell-based or functional assay

Chain of rat PRL receptor (PRL-R) on trigeminal ganglia neurons (rat) (P05710 20-610): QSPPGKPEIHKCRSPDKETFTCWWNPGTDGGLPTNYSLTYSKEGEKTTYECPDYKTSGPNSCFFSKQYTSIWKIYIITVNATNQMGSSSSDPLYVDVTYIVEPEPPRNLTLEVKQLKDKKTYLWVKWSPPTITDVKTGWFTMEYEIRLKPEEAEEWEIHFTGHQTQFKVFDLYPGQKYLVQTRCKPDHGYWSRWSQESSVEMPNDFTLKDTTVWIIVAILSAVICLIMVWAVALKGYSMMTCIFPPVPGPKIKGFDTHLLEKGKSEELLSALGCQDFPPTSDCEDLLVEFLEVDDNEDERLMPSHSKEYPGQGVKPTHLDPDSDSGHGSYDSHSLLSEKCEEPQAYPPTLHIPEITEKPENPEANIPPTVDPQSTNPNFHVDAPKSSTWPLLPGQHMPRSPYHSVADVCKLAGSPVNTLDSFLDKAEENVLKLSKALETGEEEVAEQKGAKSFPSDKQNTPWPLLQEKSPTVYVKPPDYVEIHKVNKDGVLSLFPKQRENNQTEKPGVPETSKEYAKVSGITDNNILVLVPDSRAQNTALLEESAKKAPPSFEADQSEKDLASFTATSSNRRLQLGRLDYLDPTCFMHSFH

| reduction of the PRL effect on Icap (G129R-PRL 16 nM with rPRL 4 nM) [%] | TRPV1 phosphorylation (32P incorporation) in TG neurons from intact female rats, PRL 40 nM for 10 min [%] | capsaicin-evoked Ca2+ influx in TG neurons from intact female rats (PRL 40 nM, 10 min) [%] | Substance | EC50 of sensitization of capsaicin-induced currents (Icap) in TG neurons from naive female rats [nM] |
| --- | --- | --- | --- | --- |
| 40 |  |  | G129R-hPRL (ligand) |  |
|  | 150 | 71 | Ovine PRL [oPRL-21, BIO] (from UniProt P01240 31-229) (ligand) | 0.27 |
